Article PMC8221637 (Science Advances, 2021)

Molecular target: the molecule itself
Assay: SEC

B1: recombinant His-PIPKIγ (enzyme)
chain: MELEVPDEAESAEAGAVPSEAAWAAESGAAAGLAQKKAAPTEVLSMTAQPGPGHGKKLGHRGVDASGETTYKKTTSSTLKGAIQLGIGYTVGHLSSKPERDVLMQDFYVVESIFFPSEGSNLTPAHHFQDFRFKTYAPVAFRYFRELFGIRPDDYLYSLCNEPLIELSNPGASGSLFYVTSDDEFIIKTVMHKEAEFLQKLLPGYYMNLNQNPRTLLPKFYGLYCVQSGGKNIRVVVMNNILPRVVKMHLKFDLKGSTYKRRASKKEKEKSFPTYKDLDFMQDMPEGLLLDADTFSALVKTLQRDCLVLESFKIMDYSLLLGVHNIDQHERERQAQGAQSTSDEKRPVGQKALYSTAMESIQGGAARGEAIESDDTMGGIPAVNGRGERLLLHIGIIDILQSYRFIKKLEHTWKALVHDGDTVSVHRPSFYAERFFKFMSNTVFRKNSSLKSSPSKKGRGGALLAVKPLGPTAAFSASQIPSEREEAQYDLRGARSYPTLEDEGRPDLLPCTPPSFEEATTASIATTLSSTSLSIPERSPSETSEQPRYRRRTQSSGQDGRPQEEPPAEEDLQQITVQVEPACSVEIVVPKEEDAGVEASPAGASAAVEVETASQASDEEGAPASQASDEEDAPATDIYFFTDGRYWIYSPRHRRLRAVTLSASGTPTDERSWVYSPLHYSAQAPPASDGESDT
With B1 the “stoichiometry N” value was 2.
